In article PMC10917151 (Nature chemical biology, 2023):
Each block holds one compound with its values, some of them ahead of it.

Legend:
VHL-LgBiT (human) = VHL-LgBiT (human) (UniProt P40337)
[1] = molecular target: endogenous BRD4 in HEK293T cells (Homo sapiens, UniProt O60885); assay: Western blot of endogenous BRD4 degradation; format: cell-based; settings: 18 h

VHL-LgBiT (human), sequence (P40337 whole entry): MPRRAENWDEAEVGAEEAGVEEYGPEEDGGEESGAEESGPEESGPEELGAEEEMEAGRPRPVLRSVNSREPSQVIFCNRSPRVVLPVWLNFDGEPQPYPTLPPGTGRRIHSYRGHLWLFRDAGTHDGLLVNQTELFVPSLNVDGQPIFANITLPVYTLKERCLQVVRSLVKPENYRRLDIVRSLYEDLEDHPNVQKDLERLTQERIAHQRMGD

HiBiT assay: DC50 of degradation of HiBiT-tagged BRD4^BD1 in HEK293T with CIP-2 (VHL-LgBiT (human)): 0.017 µM | HiBiT assay: Dmax of degradation of HiBiT-tagged BRD4^BD1 in HEK293T with CIP-2 (VHL-LgBiT (human)): 93%
Compound: SmBiT-BRD4^BD1 (domain or fragment)

endogenous BRD4 degradation at 1 μM (Western blot) ([1]; 1 μM): complete BRD4 removal
Compound: Cc1ncsc1-c1ccc(CNC(=O)[C@@H]2C[C@@H](O)CN2C(=O)[C@@H](NC(=O)COCCOCCOCCNC(=O)C[C@@H]2N=C(c3ccc(Cl)cc3)c3c(sc(C)c3C)-n3c(C)nnc32)C(C)(C)C)cc1 [MZ1]

endogenous BRD4 degradation (Western blot) [1]: no degradation
Compound: CC(=O)N[C@H](C(=O)N1C[C@H](O)C[C@H]1C(=O)NCc1ccc(-c2scnc2C)cc1)C(C)(C)C [VH032]
